Assay results published in patent US9493537 (STC UNM, dated 2016).
Positions of bridges follow the written chain, without caps; N, C: chain ends. Non-standard residues stand in square brackets, D forms with d. *: point of attachment. DOTA = O=C(O)CN1CCN(CC(=O)O)CCN(CC(=O)*)CCN(CC(=O)O)CC1; Nle = CCCC[C@H](N)C(=O)O

B1: DOTA-GGNle-CycMSHhex (peptide)
peptide: {DOTA}-GG[Nle]DH[dF]RWK-NH2
modifications: lactam 4-9
SMILES: CCCC[C@H](NC(=O)CNC(=O)CNC(=O)CN1CCN(CC(=O)O)CCN(CC(=O)O)CCN(CC(=O)O)CC1)C(=O)N[C@H]1CC(=O)NCCCC[C@@H](C(N)=O)NC(=O)[C@H](Cc2c[nH]c3ccccc23)NC(=O)[C@H](CCCNC(=N)N)NC(=O)[C@@H](Cc2ccccc2)NC(=O)[C@H](Cc2c[nH]cn2)NC1=O
notes: Synthetic; also called DOTA-GlyGlyNle-CycMSHhex
B2: DOTA-GENle-CycMSHhex (peptide)
peptide: {DOTA}-GE[Nle]DH[dF]RWK-NH2
modifications: lactam 4-9
SMILES: CCCC[C@H](NC(=O)[C@H](CCC(=O)O)NC(=O)CNC(=O)CN1CCN(CC(=O)O)CCN(CC(=O)O)CCN(CC(=O)O)CC1)C(=O)N[C@H]1CC(=O)NCCCC[C@@H](C(N)=O)NC(=O)[C@H](Cc2c[nH]c3ccccc23)NC(=O)[C@H](CCCNC(=N)N)NC(=O)[C@@H](Cc2ccccc2)NC(=O)[C@H](Cc2c[nH]cn2)NC1=O
notes: Synthetic; also called DOTA-GlyGluNle-CycMSHhex
B3: DOTA-NleGE-CycMSHhex (peptide)
peptide: {DOTA}-[Nle]GEDH[dF]RWK-NH2
modifications: lactam 4-9
SMILES: CCCC[C@H](NC(=O)CN1CCN(CC(=O)O)CCN(CC(=O)O)CCN(CC(=O)O)CC1)C(=O)NCC(=O)N[C@@H](CCC(=O)O)C(=O)N[C@H]1CC(=O)NCCCC[C@@H](C(N)=O)NC(=O)[C@H](Cc2c[nH]c3ccccc23)NC(=O)[C@H](CCCNC(=N)N)NC(=O)[C@@H](Cc2ccccc2)NC(=O)[C@H](Cc2c[nH]cn2)NC1=O
notes: Synthetic; also called DOTA-NleGlyGlu-CycMSHhex

Legend:
[1] = target: T1, melanocortin-1 (MC1) receptor on B16/F1 murine melanoma cells (mouse (B16/F1 murine melanoma cells), UniProt Q01727 1-315); test: competitive binding on B16/F1 melanoma cells against 125I-Tyr2-NDP-MSH; row head 'MC1R binding affinity (nM)'
T1 construct: whole, on cells; Endogenous receptor of the B16/F1 cells, in culture and as flank tumours in C57 mice; also called MCI receptor; MSH receptor
Procedure: (§1) The medium was aspirated after the incubation. The cells were rinsed twice with 0.5 mL of ice-cold pH 7.4, 0.2% BSA/0.01 M phosphate buffered saline (PBS) and lysed in 0.5 mL of 1 N NaOH for 5 minutes. The activities associated with cells were measured in a Wallac 1480 automated gamma counter (PerkinElmer, Waltham, Mass.). The $IC50$ value of each peptide was calculated using Prism software (GraphPad Software, La Jolla, Calif.).

[2] = target: T1, melanocortin-1 (MC1) receptor on B16/F1 …; test: competitive binding on B16/F1 melanoma cells against 125I-Tyr2-NDP-MSH
Procedure: as §1

T1 sequence (Q01727 whole entry): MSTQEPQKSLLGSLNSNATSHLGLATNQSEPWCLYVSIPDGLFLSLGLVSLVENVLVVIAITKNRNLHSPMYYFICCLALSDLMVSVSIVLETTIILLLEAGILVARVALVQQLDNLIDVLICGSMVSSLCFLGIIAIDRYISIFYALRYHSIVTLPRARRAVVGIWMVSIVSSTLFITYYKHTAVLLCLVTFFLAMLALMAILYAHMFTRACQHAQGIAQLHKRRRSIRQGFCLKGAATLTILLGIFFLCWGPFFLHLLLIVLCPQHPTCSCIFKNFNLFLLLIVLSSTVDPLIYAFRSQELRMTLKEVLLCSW

| Binder | IC50 [1] | fold lower receptor binding affinity than DOTA-GGNle-CycMSHhex and DOTA-GENle-CycMSHhex [2] |
| --- | --- | --- |
| B1 | 2.1 nM |  |
| B2 | 11.5 nM |  |
| B3 | 873 nM | ≥ 78 fold |
